From patent US20130136748A1 (Ablynx, published 2013)
Like-named read-outs stand apart in the source and are kept apart here.

How the values were obtained:
[1] = target: T1, human HER3-Fc (R&D Systems, 348-RB) (human, UniProt P21860 20-643); experiment: SPR, HER3-Fc captured by anti-Fc
T1 construct: Bought; also called hHER3-Fc; Fc-HER3; Fc part of the bought chimera not given, not described

[2] = target: T2, hHER3 full length (human, UniProt P21860 20-1342); experiment: FACS competition with HRG1-β1-EGF, CHO-HER3
[3] = target: T1, human HER3-Fc (R&D Systems, 348-RB); experiment: HRG competition alphascreen
[4] = target: T2, hHER3 full length; experiment: FACS, 400 nM, competitor 23F05-biotin
[5] = target: T2, hHER3 full length; experiment: FACS, 400 nM, competitor 17C08-biotin
[6] = target: T2, hHER3 full length; experiment: FACS, 400 nM, competitor 04C07-biotin
[7] = target: T2, hHER3 full length; experiment: FACS, 400 nM, competitor 18E08-biotin
[8] = target: T2, hHER3 full length; experiment: FACS, 400 nM, competitor 21B02-biotin
[9] = target: T2, hHER3 full length; experiment: cell-based or functional assay
[10] = target: T3, hHER3 ECD (human HER3 extracellular domain) (human, UniProt P21860 20-643); experiment: ELISA, coated hHER3-ECD
T3 construct: also called recombinant HER3-ECD

[11] = target: T2, hHER3 full length; experiment: FACS, 400 nM, competitor 04F10-biotin
[12] = target: T4, cHER3ECD (Maccaca fascicularis HER3 extracellular domain) (Macaca fascicularis, UniProt P21860 20-643 (human entry)); experiment: ELISA, coated cHER3-ECD
T4 construct: also called cyno HER3ECD; cyno HER3-ECD
T4 chain: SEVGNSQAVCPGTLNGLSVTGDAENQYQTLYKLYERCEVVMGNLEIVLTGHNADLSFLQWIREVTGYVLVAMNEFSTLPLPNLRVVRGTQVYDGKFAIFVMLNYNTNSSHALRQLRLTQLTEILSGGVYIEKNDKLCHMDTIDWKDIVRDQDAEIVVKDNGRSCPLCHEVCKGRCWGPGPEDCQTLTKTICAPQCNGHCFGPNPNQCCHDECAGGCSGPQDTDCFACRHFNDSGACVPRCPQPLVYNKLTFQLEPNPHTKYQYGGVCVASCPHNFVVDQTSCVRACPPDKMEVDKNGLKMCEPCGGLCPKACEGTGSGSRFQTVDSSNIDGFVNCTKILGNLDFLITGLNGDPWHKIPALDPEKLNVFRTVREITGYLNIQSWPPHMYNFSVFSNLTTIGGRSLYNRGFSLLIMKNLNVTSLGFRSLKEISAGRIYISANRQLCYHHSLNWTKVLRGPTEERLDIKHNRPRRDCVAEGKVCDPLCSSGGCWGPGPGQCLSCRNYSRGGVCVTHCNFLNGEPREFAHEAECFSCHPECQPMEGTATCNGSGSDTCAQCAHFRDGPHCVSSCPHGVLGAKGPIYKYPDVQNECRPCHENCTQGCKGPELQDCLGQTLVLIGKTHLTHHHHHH

[13] = target: T2, hHER3 full length; experiment: cell-based or functional assay; remark: listed apart in the source
[14] = target: T2, hHER3 full length; experiment: cell-based or functional assay; remark: listed apart in the source
[15] = target: T3, hHER3 ECD (human HER3 extracellular …); experiment: SPR off rate on HER3-ECD, periplasmic extract
[16] = target: T1, human HER3-Fc (R&D Systems, 348-RB); experiment: 18G11 competition alphascreen, periplasmic extract
[17] = target: T2, hHER3 full length; experiment: cell-based or functional assay; remark: listed apart in the source
[18] = target: T1, human HER3-Fc (R&D Systems, 348-RB); experiment: HRG competition alphascreen; remark: listed apart in the source

With Control Fab2 the Kd [1] was 2.77 nM and the kon [1] was 93400 M⁻¹ s⁻¹.

Work on Control Fab1 yielded a Kd [1] of 0.57 nM and a kon [1] of 703000 M⁻¹ s⁻¹.

Work on Control MAb2 (antibody) yielded an IC50 [2] of 67.2 nM.

For Control MAb1 (antibody), the IC50 [2] was 9.4 nM.

B1: HER3MS00077 (VHH)
VHH: EVQLVESGGGLVQPGGSLRLSCAASGSIGGLNAMAWYRQAPGKERELVAGIFGVGSTRYADSVKGRFTISRDNSKNTVFLQMNSLRSEDTAVYYCRMSSVTRGSSDYWGQGTLVTVSS
notes: 17B05 basic + I73N; also called HER3MS0077
With B1 the IC50 [3] was 0.753 nM.

B2: HER3MS00082 (VHH)
VHH: EVQLVESGGGLVQPGGSLRLSCAASGSIGGLNAMAWYRQAPGKERELVAGIFGVGSTRYADSVKGRFTISRDISKNTVYLQMNSLRSEDTAVYYCAMSSVTRGSSDYWGQGTLVTVSS
notes: also called HER3MS0082
B2 was tested, and the IC50 [3] was 4.05 nM.

B3: HER3MS00081 (VHH)
VHH: EVQLVESGGGLVQPGGSLRLSCAASGSIGGLNAMAWYRQAPGKERELVAGIFGVGSTRYADSVKGRFTISRDNSKNTVFLQMNSLRSEDTAVYYCAMSSVTRGSSDYWGQGTLVTVSS
notes: also called HER3MS0081
B3 gave an IC50 [3] of 5.89 nM.

B4: HER3MS00079 (VHH)
VHH: EVQLVESGGGLVQPGGSLRLSCAASGSIGGLNAMAWYRQAPGKERELVAGIFGVGSTRYADSVKGRFTISRDISKNTVFLQMNSLRSEDTAVYYCAMSSVTRGSSDYWGQGTLVTVSS
notes: also called HER3MS0079
With B4 the IC50 [3] was 3.08 nM.

B5: HER3MS00078 (VHH)
VHH: EVQLVESGGGLVQPGGSLRLSCAASGSIGGLNAMAWYRQAPGKERELVAGIFGVGSTRYADSVKGRFTISRDISKNTVYLQMNSLRSEDTAVYYCRMSSVTRGSSDYWGQGTLVTVSS
notes: 17B05 basic + F79Y; also called HER3MS0078
Molecule B5 has an IC50 [3] of 0.811 nM.

B6: 34A04 (VHH)
VHH: EVQLVESGGGLVQAGGSLRLSCAASGFTFDDYTIGWFRQAPGKEREEISCISNNDGSTYYTNSVKGRFTISSDNAKNTVYLQMNSLKPEDTAVYYCAASPHGCWYDLIPLQADFGSWGQGTQVTVSS
In the case of B6, the “% competition” value [4] is reported as 97%, the “% competition” value [5] is reported as 14% and the “% competition” value [6] is reported as 22%. The “% competition” value [7] was 25%, the “% competition” value [8] was 99% and the “IC50, HRG1-β1 induced pAkt, MCF-7” value [9] was 6.26e-08 M. The “IC50, HRG1-β1 induced pERK1/2, MCF-7” value [9] was 3.13e-07 M, the EC50 [10] was 0.57 nM and the “% competition” value [11] was 3%. For the same molecule, the EC50 [12] was 0.49 nM, the “IC50, HRG1-β1 induced pHER3, MCF-7” value [13] was 3.02e-08 M and the “IC50, HRG1-β1 induced pHER3, MDA-MB468” value [13] was 2.2e-08 M. For the same molecule, the Kd [1] was 2.7 nM and the kon [1] was 2.63e+06 M⁻¹ s⁻¹.

B7: 05A09 (VHH)
VHH: EVQLVESGGGLVQAGGSLRLSCAASGFTFDDYAIGWFRQAPGKEREGVSCISSSDGSTVYADSVKGRFTISSDNAKNTVYLQMNSLKPEDTAVYYCAAERRRGYSDLCRFYYGMDYWGKGTQVTVSS
With B7 the “% competition” value [4] was 10%, the “% competition” value [5] was 48% and the “% competition” value [6] was 0%. For the same molecule, the “% competition” value [7] was 78%, the “% competition” value [8] was 22% and the “IC50, HRG1-β1 induced pAkt, MCF-7” value [9] was 2.9e-07 M. For the same molecule, the “inhibition of HRG1-β1 induced pERK1/2, MCF-7” value [9] was < 50 % inhibition, the EC50 [10] was 1.45 nM and the “% competition” value [11] was 0%. The EC50 [12] was 1.3 nM, the “IC50, HRG1-β1 induced pHER3, MCF-7” value [13] was 9.12e-08 M and the “IC50, HRG1-β1 induced pHER3, MDA-MB468” value [13] was 1.28e-07 M.

B8: HER3MS00068 (VHH)
VHH: EVQLVESGGGLVQPGGSLRLSCAASGTLFKINAMGWYRQAPGKRRELVALITSSDTTDYAESVEGRFTISRDNTWNAVYLQMNSLKPEDTAVYYCHSDHYSGGVPEKRVIMYGQGTLVTVSS
notes: 18G11 M99G
B8 was tested, and the “IC50 pHER3 blocking, HRG stimulated MCF7” value [14] was 8.88e-08 M, the koff [15] was 0.001 s⁻¹ and the “% inhibition” value [16] was 84.4%.

B9: HER3MS00070 (VHH)
VHH: EVQLVESGGGLVQPGGSLRLSCAASGTLFKINAMGWYRQAPGKRRELVALITSSDTTDYAESVEGRFTISRDNTWNAVYLQMNSLKPEDTAVYYCHSDHYSIGVPEKRVIMYGQGTLVTVSS
notes: 18G11 M99I
With B9 the “IC50 pHER3 blocking, HRG stimulated MCF7” value [14] was 3.78e-08 M, the koff [15] was 0.00064 s⁻¹ and the “% inhibition” value [16] was 82.2%.

B10: HER3MS00072 (VHH)
VHH: EVQLVESGGGLVQPGGSLRLSCAASGTLFKINAMGWYRQAPGKRRELVALITSSDTTDYAESVEGRFTISRDNTWNAVYLQMNSLKPEDTAVYYCHSDHYSMGVPEKRVILYGQGTLVTVSS
notes: 18G11 M102L
For B10, the “IC50 pHER3 blocking, HRG stimulated MCF7” value [14] was 5.76e-08 M, the koff [15] was 0.00082 s⁻¹ and the “% inhibition” value [16] was 88%.

B11: HER3MS00069 (VHH)
VHH: EVQLVESGGGLVQPGGSLRLSCAASGTLFKINAMGWYRQAPGKRRELVALITSSDTTDYAESVEGRFTISRDNTWNAVYLQMNSLKPEDTAVYYCHSDHYSLGVPEKRVIMYGQGTLVTVSS
notes: 18G11 M99L
B11 was tested, and the “IC50 pHER3 blocking, HRG stimulated MCF7” value [14] was 5.27e-08 M, the koff [15] was 0.00081 s⁻¹ and the “% inhibition” value [16] was 83%.

B12: HER3MS00071 (VHH)
VHH: EVQLVESGGGLVQPGGSLRLSCAASGTLFKINAMGWYRQAPGKRRELVALITSSDTTDYAESVEGRFTISRDNTWNAVYLQMNSLKPEDTAVYYCHSDHYSVGVPEKRVIMYGQGTLVTVSS
notes: 18G11 M99V
For B12, the “IC50 pHER3 blocking, HRG stimulated MCF7” value [14] was 7.35e-08 M, the koff [15] was 0.00084 s⁻¹ and the “% inhibition” value [16] was 80.9%.

B13: HER3MS00074 (VHH)
VHH: EVQLVESGGGLVQPGGSLRLSCAASGTLFKINAMGWYRQAPGKRRELVALITSSDTTDYAESVEGRFTISRDNTWNAVYLQMNSLKPEDTAVYYCHSDHYSMGVPEKRVIEYGQGTLVTVSS
notes: 18G11 M102E
With B13 the “IC50 pHER3 blocking, HRG stimulated MCF7” value [14] was 6.3e-08 M, the koff [15] was 0.00049 s⁻¹ and the “% inhibition” value [16] was 82.7%.

B14: HER3MS00073 (VHH)
VHH: EVQLVESGGGLVQPGGSLRLSCAASGTLFKINAMGWYRQAPGKRRELVALITSSDTTDYAESVEGRFTISRDNTWNAVYLQMNSLKPEDTAVYYCHSDHYSMGVPEKRVIDYGQGTLVTVSS
notes: 18G11 M102D
B14 was tested, and the “IC50 pHER3 blocking, HRG stimulated MCF7” value [14] was 8.75e-08 M, the koff [15] was 0.00083 s⁻¹ and the “% inhibition” value [16] was 84.4%.

B15: HER3MS00129 (VHH)
VHH: EVQLVESGGGLVQPGGSLRLSCAASGFTFSSYPMSWVRQAPGKGPEWVSTVSPGGITTSYADSVKGRFTISRDNSKNTLYLQMNSLRPEDTAVYYCLRDLGNRGQGTLVTVSS
notes: 04C07 basic + A46E + N101G
For B15, the “IC50 pHER3, HRG1-β1 stimulated MCF7” value [17] was 1.21e-07 M and the IC50 [18] was 5.1 nM.
